{"source": "the supplement of paper PMC9732359", "note": "± gives the uncertainty stated by the source."}
{"experiment": "protein stability index of a GFP-peptide fusion (yeast GPS) (PSI 1-4); higher = more stable; sorted into four equal gates, so the index is relative within each strain", "conditions": "pdr5∆", "in_short": "(§1)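 Mid-log yeast cultures in leucine-free medium, carrying a pooled plasmid library, were sorted into four equal gates by their GFP/Cherry fluorescence ratio. Each plasmid expressed Cherry along with GFP fused upstream of a tiled 17-residue yeast protein peptide. Plasmids recovered from each gate were PCR-amplified and Illumina-sequenced, with reads assigned to strains by barcodes. The protein stability index was obtained by summing each gate's read frequency weighted by its gate number.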"}
{"sequence": "GSNVLKSGKTIVITSIT [RRP43]", "protein stability index": "2.57 ± 0.061"}
{"sequence": "GSQFIVVSLKEGMFANA [SMC2]", "protein stability index": "3.64 ± 0.24"}
{"sequence": "GSTGGLGASFGQQQQQS [YGL172W/NUP49]", "protein stability index": "2.81 ± 0.076"}
{"sequence": "GSTSLIEGMEQRIIKEL [ARP7]", "protein stability index": "3.23 ± 0.12"}
{"sequence": "GSVFNMNGNTNANTVFA [YOR098C/NUP1]", "protein stability index": "3 ± 0.12"}
{"sequence": "GTENTERPPLLPILPIQ [YOR098C/NUP1]", "protein stability index": "3.08 ± 0.17"}
{"sequence": "GTFGGDGMYSESKLSLE [FAS2]", "protein stability index": "2.66 ± 0.051"}
{"experiment": "protein stability index of a GFP-peptide fusion (yeast GPS) (PSI 1-4); higher = more stable; sorted into four equal gates, so the index is relative within each strain", "conditions": "san1∆", "in_short": "as §1"}
{"sequence": "FTLWWSPTINRANVYVG [PRP8]", "protein stability index": "1.61 ± 0.15"}
{"sequence": "FTMMTSEPLTLKVLSEH [PCI8]", "protein stability index": "1.94 ± 0.095"}
{"sequence": "FTSAPIEVTIGIDQYSF [AAR2]", "protein stability index": "1.53 ± 0.12"}
{"sequence": "FVKFITYLTQEILILIN [SIN4]", "protein stability index": "1.57 ± 0.069"}
{"sequence": "FVKFLSKKGSLENNIRE [RPL10]", "protein stability index": "3.11 ± 0.076"}
{"sequence": "FVKGISRDIKALQDSLF [YML103C/NUP188]", "protein stability index": "1.97 ± 0.096"}
{"sequence": "FVKVTKATLELLKLIEP [RPL7A]", "protein stability index": "2.62 ± 0.15"}
{"sequence": "FVSESPSFVKSGKLRDY [ISW2]", "protein stability index": "2.28 ± 0.049"}
{"sequence": "FVSSLSNTSTLKNMLYV [BRR2]", "protein stability index": "1.85 ± 0.064"}
{"sequence": "FYRGNYTDFENTFQKTV [FAS1]", "protein stability index": "2.34 ± 0.1"}
{"sequence": "GAHLLEFQPSGNVTELY [PRE5]", "protein stability index": "2.92 ± 0.12"}
{"sequence": "GAIAYNQFKRIDTLLYL [RET1]", "protein stability index": "1.48 ± 0.14"}
{"sequence": "GAIILTKMDGHARGGGA [SRP54]", "protein stability index": "2.95 ± 0.13"}
{"sequence": "GAIKPFTPKLIYDFITL [ECM29]", "protein stability index": "1.87 ± 0.3"}
{"sequence": "GAKFENIVHNFKERQMM [AAR2]", "protein stability index": "2.76 ± 0.089"}
{"sequence": "GANTSAAQTLLQMDYKD [PRE9]", "protein stability index": "3.09 ± 0.048"}
{"sequence": "GASTVMKTKTINAQGEE [PRP8]", "protein stability index": "3.2 ± 0.083"}
{"sequence": "GDEGYNEDMVRRANFYK [SNF12]", "protein stability index": "3.44 ± 0.076"}
{"sequence": "GDIVLTRVTRLSLQRAN [CSL4]", "protein stability index": "1.59 ± 0.16"}
{"sequence": "GDKFSEDFRIQFKTTIK [UBP6]", "protein stability index": "2.32 ± 0.087"}
{"sequence": "GDKVVVTIWYRAPELLL [SSN3]", "protein stability index": "1.74 ± 0.068"}
{"sequence": "GEALPNKFHKSIREDIL [SIR2]", "protein stability index": "2.7 ± 0.096"}
{"sequence": "GEEDADEEETAEGQTNS [RPN1]", "protein stability index": "3.01 ± 0.14"}
{"sequence": "GEFSGKNFSPTKRVEKP [RRP6]", "protein stability index": "2.54 ± 0.078"}
{"sequence": "GEGPFTVKFKHMDYDGN [YMR129W/POM152]", "protein stability index": "2.78 ± 0.11"}
{"sequence": "GEIEIKPNEEEELGFWD [RPN13]", "protein stability index": "3.25 ± 0.074"}
{"sequence": "GEILLPDIADIPRTFRT [SNF5]", "protein stability index": "3.19 ± 0.12"}
{"sequence": "GEKTLSSLALVFALHKY [SMC4]", "protein stability index": "1.9 ± 0.12"}
{"sequence": "GENIDADNDGPRINNIS [SNF2]", "protein stability index": "3.28 ± 0.065"}
{"sequence": "GFSMNNPYNIVPQGKIV [SMC3]", "protein stability index": "3.08 ± 0.085"}
{"sequence": "GFSPTSPTYSPTSPAYS [RPO21]", "protein stability index": "2.94 ± 0.051"}
{"sequence": "GGAYTVSTAAAATVRST [RPL43A]", "protein stability index": "1.95 ± 0.069"}
{"sequence": "GGLFGNSAQNNSTTSGG [YGR119C/NUP57]", "protein stability index": "2.78 ± 0.068"}
{"sequence": "GGQGNTDDYFEELRDLY [FAS1]", "protein stability index": "3.3 ± 0.057"}
{"sequence": "GHRMKNAQSKLSLTLNT [SNF2]", "protein stability index": "1.79 ± 0.065"}
{"sequence": "GHVKPVRCVNCSKSIPK [RPS26A]", "protein stability index": "2.16 ± 0.19"}
{"sequence": "GIACAGKGLQSAIDVLD [RPN2]", "protein stability index": "2.48 ± 0.1"}
{"sequence": "GIDQYSFNVKENQPFHG [AAR2]", "protein stability index": "2.82 ± 0.048"}
{"sequence": "GIGALFTQQELQKQMGI [RPC34]", "protein stability index": "3.29 ± 0.085"}
{"sequence": "GIKKHSLWRRTVYSLSQ [YDL116W/NUP84]", "protein stability index": "1.29 ± 0.14"}
{"sequence": "GIKLQMQNSKVESVCQK [SMC4]", "protein stability index": "2.59 ± 0.08"}
{"sequence": "GIKPPKGVLLYGPPGTG [RPT4]", "protein stability index": "2.22 ± 0.22"}
{"sequence": "GIRGKLVTIEGALIHKA [SMC1]", "protein stability index": "2.88 ± 0.13"}
{"sequence": "GITHFRAGMTHEDEKLI [PRP8]", "protein stability index": "3.1 ± 0.059"}
{"sequence": "GKEFGTTPEKPEETPLE [FAS2]", "protein stability index": "2.6 ± 0.059"}
{"sequence": "GKQIKSTIYNWGDNKLA [YML103C/NUP188]", "protein stability index": "2.82 ± 0.11"}
{"sequence": "GKRHIFDVNTLCLMTWK [CDC53]", "protein stability index": "1.44 ± 0.14"}
{"sequence": "GKRQLMKAVGEYMKRHP [SEC65]", "protein stability index": "2.94 ± 0.071"}
{"sequence": "GLCGAGTNNARLAQLLR [RPN1]", "protein stability index": "1.4 ± 0.13"}
{"sequence": "GLIVNPVKVSGTIKKIE [POP5]", "protein stability index": "2.95 ± 0.12"}
{"sequence": "GLTTVWLLSALGNSIVK [REC8]", "protein stability index": "2.13 ± 0.14"}
{"sequence": "GLVHDLCHPKKEKYGLA [SMC1]", "protein stability index": "2.81 ± 0.29"}
{"sequence": "GMGGGMPDMNEMMKMMQ [SRP54]", "protein stability index": "3.58 ± 0.083"}
{"sequence": "GMNLLSNLSQNVVPYHR [SWI1]", "protein stability index": "2.46 ± 0.098"}
{"sequence": "GNAVTVTEDGTVVTVVS [RPL22A]", "protein stability index": "1.45 ± 0.11"}
{"sequence": "GNDNLIKAPTVAADGKL [YLR335W/NUP2]", "protein stability index": "2.56 ± 0.077"}
{"sequence": "GNDTISKFYNMKQPYVF [SSN2]", "protein stability index": "3.2 ± 0.057"}
{"sequence": "GNGKLSEHFLYLAKELN [RPN1]", "protein stability index": "2.42 ± 0.2"}
{"sequence": "GNIVKEFENKFQNSYKP [YMR129W/POM152]", "protein stability index": "3.37 ± 0.053"}
{"sequence": "GNNKDLKNTMQYLTNFS [RPB4]", "protein stability index": "3.02 ± 0.075"}
{"sequence": "GNNTELTKTTVNISAVD [YCG1]", "protein stability index": "3.02 ± 0.054"}
{"sequence": "GNQRKILQYSRTWYESF [YJR042W/NUP85]", "protein stability index": "2.28 ± 0.17"}
{"sequence": "GNRYLEKRLNLRVEHIK [RPL21A]", "protein stability index": "3.08 ± 0.075"}
{"sequence": "GNSESKVEKGVNIEPFN [LIN1]", "protein stability index": "3.46 ± 0.08"}
{"sequence": "GNVIQFIYGEDGMDAAH [RPO21]", "protein stability index": "3.2 ± 0.063"}
{"sequence": "GNYIKTENATENDQQDN [LIN1]", "protein stability index": "2.05 ± 0.13"}
{"sequence": "GQHKNNTSLNINGWKFE [SWP82]", "protein stability index": "3.05 ± 0.063"}
{"sequence": "GQKNEVRILRLITTNSV [SNF2]", "protein stability index": "2.14 ± 0.058"}
{"sequence": "GQLGLDDNDVPGPLPDT [YLR018C/POM34]", "protein stability index": "2.37 ± 0.23"}
{"sequence": "GRENFVYANNPEVSDDG [SIR3]", "protein stability index": "2.8 ± 0.1"}
{"sequence": "GRGGSGWKPYYKLFIWL [YML031W/NDC1]", "protein stability index": "1.41 ± 0.089"}
{"sequence": "GRHVATCSSDQHIKVFK [YGL100W/SEH1]", "protein stability index": "2.57 ± 0.08"}
{"sequence": "GRMDMTRLYDYEIRDID [SSN2]", "protein stability index": "3.38 ± 0.074"}
{"sequence": "GRRKTWKRQNTLSLWRY [RPL15A]", "protein stability index": "2.57 ± 0.085"}
{"sequence": "GRTGRAANEGTAVSFVS [PRP28]", "protein stability index": "2.81 ± 0.27"}
{"sequence": "GRTPNISNGTINIQKKL [SIR4]", "protein stability index": "2.58 ± 0.063"}
{"sequence": "GRVKALEQFMERNNIGE [YDL116W/NUP84]", "protein stability index": "2.75 ± 0.15"}
{"sequence": "GSCTRQLAGKSGEDTNV [YOR098C/NUP1]", "protein stability index": "3.34 ± 0.12"}
{"sequence": "GSEEKAFVPKKRKTNII [SRP54]", "protein stability index": "2.88 ± 0.067"}
{"sequence": "GSEVRLRDDTLPKAWIS [COR1]", "protein stability index": "2.72 ± 0.075"}
{"sequence": "GSGKSNMMDAISFVLGV [SMC1]", "protein stability index": "3.24 ± 0.058"}
{"sequence": "GSGSRLNRLPAASLGDM [RPL23A]", "protein stability index": "2.66 ± 0.24"}
{"sequence": "GSKKGQEGKISSVYRLK [RPL26A]", "protein stability index": "2.7 ± 0.086"}
{"sequence": "GSKMEAKNEDDPAHSLN [AAR2]", "protein stability index": "1.23 ± 0.26"}
{"sequence": "GSLACDTADEAKTLIPS [RPB4]", "protein stability index": "3.33 ± 0.051"}
{"sequence": "GSNNGFGNKPAGSTGFS [YGR119C/NUP57]", "protein stability index": "1.27 ± 0.15"}
{"sequence": "GSNQQSSTGGGLFGNKP [YGR119C/NUP57]", "protein stability index": "3.23 ± 0.058"}
{"sequence": "GSNVLKSGKTIVITSIT [RRP43]", "protein stability index": "2.41 ± 0.067"}
{"sequence": "GSQFIVVSLKEGMFANA [SMC2]", "protein stability index": "3.44 ± 0.2"}
{"sequence": "GSTGGLGASFGQQQQQS [YGL172W/NUP49]", "protein stability index": "2.12 ± 0.12"}
